As usually defined, the IC50 is the midpoint of a concentration-inhibition curve.

Experimental findings from publication PMC7315409 (Science translational medicine, 2020) are described below.

The assay addresses T1, recombinant high mobility group box 1 (HMGB1) (human, UniProt P09429 1-215).
T1 sequence (looked up): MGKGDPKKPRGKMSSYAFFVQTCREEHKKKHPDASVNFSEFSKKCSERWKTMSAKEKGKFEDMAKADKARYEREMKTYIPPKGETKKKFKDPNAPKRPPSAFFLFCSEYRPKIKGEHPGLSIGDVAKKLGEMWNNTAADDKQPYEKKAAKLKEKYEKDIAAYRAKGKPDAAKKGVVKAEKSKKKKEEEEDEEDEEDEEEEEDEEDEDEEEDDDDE
The assay can be described thus: radioligand binding.

B1: purified syndecan-1 (natural protein)
chain: QIVAVNVPPEDQDGSGDDSDNFSGSGTGALPDTLSRQTPSTWKDVWLLTATPTAPEPTSSNTETAFTSVLPAGEKPEEGEPVLHVEAEPGFTARDKEKEVTTRPRETVQLPITQRASTVRVTTAQAAVTSHPHGGMQPGLHETSAPTAPGQPDHQPPRVEGGGTSVIKEVVEDGTANQLPAGEGSGEQDFTFETSGENTAVAAVEPGLRNQPPVDEGATGASQSLLDRKEVLG
modifications: heparan sulfate (HS) polysaccharide side chains on the core protein
For the molecule B1, the IC50 was 500 to 550 nM.
